Earlier results as cited in article PMC4567495.

Legend:
[1] = target: cardiac troponin I switch peptide 147-163 (Homo sapiens) (UniProt P19429); assay: NMR
[2] = target: cardiac troponin I switch peptide (Homo sapiens) (UniProt P19429); assay: NMR
Chain of cardiac troponin I switch peptide (Homo sapiens) (P19429 2-210): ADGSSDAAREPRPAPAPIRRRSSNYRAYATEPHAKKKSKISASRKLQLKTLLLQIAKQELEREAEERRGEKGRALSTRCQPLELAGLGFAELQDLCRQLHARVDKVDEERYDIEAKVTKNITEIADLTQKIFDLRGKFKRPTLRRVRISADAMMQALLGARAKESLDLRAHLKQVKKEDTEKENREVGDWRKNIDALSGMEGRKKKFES

In the case of “cardiac troponin C N-domain (from UniProt P63316)”, the Kd [1] is given as 150 µM and the Kd [2] is given as greater than 2000 µM.
